Here are results for three substances from PMC9980222.

A word on the stoichiometry N: it is the number of molecules, sites or subunits per partner or assembly. The Kd is the equilibrium constant for the complex coming apart. Low readings indicate tighter binding, high ones weaker binding. The term koff denotes a measure of how fast the partners let go of each other. One may read the kon as the rate constant with which the complex forms. Low readings indicate slow association, high ones fast association.

A value given as a limit tells only on which side of the number the result lay.

For assay [1], the target named is B41 SOSIP.664-His trimer (HIV-1 isolate B41 (Clade B)). Kind of assay: negative-stain electron microscopy.
For assay [2] the target is unchanged. Kind of assay: native gel or EMSA. In general terms: In EMSA bound probe runs differently from free probe, usually more slowly.
The target in assay [3] is BG505 SOSIP.664-His trimer (HIV-1 isolate BG505 (Clade A)). As to the kind of experiment: SPR. A general note: SPR reads the build-up and loss of mass on a sensor chip optically.
For assay [4] the target is unchanged.

For the substance B41 SOSIP.664-His trimer (complex), the stoichiometry N in assay [1] and in assay [2] was 3 throughout.
Turning to PGT151 Fab, in assay [3], the KD1 (site 1, heterogeneous-ligand model) is less than 0.1 nM; the KD2 (site 2, heterogeneous-ligand model) amounted to 27 nM; the dissociation constant (Kd) was found to be 2 nM; the Sm1 (stoichiometry of site 1, heterogeneous-ligand model) (Fab molecules per trimer) turned out to be 1.2. In assay [3], this substance returned a Sm1+Sm2 (cumulative stoichiometry, heterogeneous-ligand model) (Fab molecules per trimer) of 1.9; a Sm2 (stoichiometry of site 2, heterogeneous-ligand model) (Fab molecules per trimer) of 0.7; a koff of 0.00018 s⁻¹; a koff1 (site 1, heterogeneous-ligand model) of less than 1e-05 s⁻¹. Besides, in assay [3], the koff2 (site 2, heterogeneous-ligand model) came to 0.00076 s⁻¹; the kon is 87000 M⁻¹ s⁻¹; the kon1 (site 1, heterogeneous-ligand model) is 140000 M⁻¹ s⁻¹; the kon2 (site 2, heterogeneous-ligand model) came out at 28000 M⁻¹ s⁻¹. Also, the stoichiometry N (Fab molecules per trimer) in assay [3] was 1.9.
Substance PGT151 IgG (antibody) displayed an IC50 of neutralization of BG505 Env-pseudotyped virus, TZM-bl assay in assay [4] of 0.043 µg/mL.
